The target in test [1] is recombinant HA of H7N3 A/NIBRG/60 (A/mallard/NL/12/00) (influenza A virus). Put plainly: biolayer interferometry (Octet), steady-state fit, geometric mean, pH 7.4. In general terms: BLI is a label-free optical method that tracks binding on a fibre tip over time.
Test [2] deals with recombinant HA of H3N2 A/HK/1/68-MA (influenza A virus). The test is described as above.
Test [3] addresses recombinant HA of H1N1 A/Brisbane/59/07 (influenza A virus). The test is described as above.
The target in test [4] is recombinant HA of H3N2 A/Wisconsin/67/05 (influenza A virus). The description is as above.
Test [5] deals with recombinant HA of H7N9 A/Hangzhou/1/2013 (influenza A virus). Described as above.
Test [6] concerns the target recombinant HA of B/Brisbane/60/08 (Victoria) (influenza B virus). Described as above.
The target of test [7] is hemagglutinin (HA) of influenza A/Northern Pintail/MPB1368/06 (H4N1) (influenza A virus). Put plainly: cell-based or functional assay.
The target of test [8] is hemagglutinin (HA) of influenza B/Lee/40 (Old) (influenza B virus) (UniProt P03460). Put plainly: cell-based or functional assay.
In test [9] the target is hemagglutinin (HA) of influenza A/Northern Pintail/MPC2085/07 (H11N9) (influenza A virus). Kind of test: cell-based or functional assay.
The target of test [10] is hemagglutinin (HA) of influenza A/PR8 H5N1 HK97 (H5N1) (influenza A virus). Put plainly: cell-based or functional assay.
Test [11] concerns the target hemagglutinin (HA) of influenza A/Perth/16/09 (H3N2) (influenza A virus). Put plainly: cell-based or functional assay.
Test [12] has as its target hemagglutinin (HA) of influenza A/Chick/Germany/N/49 (H10N7) (influenza A virus). Kind of test: cell-based or functional assay.
In test [13] the target is hemagglutinin (HA) of influenza A/Anhui/1/13 (H7N9) (influenza A virus). Kind of test: cell-based or functional assay.
The target of test [14] is hemagglutinin (HA) of influenza A/Fukui/45/04 (H3N2) (influenza A virus). Put plainly: cell-based or functional assay.
Test [15] deals with hemagglutinin (HA) of influenza A/Eurasian Wigeon/HK/MPF333/07 (H5N2) (influenza A virus). Kind of test: cell-based or functional assay.
The target of test [16] is hemagglutinin (HA) of influenza A/Env/HK/MPU3156/05 (H1N2) (influenza A virus). Put plainly: cell-based or functional assay.
Test [17] has as its target hemagglutinin (HA) of influenza A/Eurasian Wigeon/MPF461/07 (H5N2) (influenza A virus). Put plainly: cell-based or functional assay.
Test [18] addresses hemagglutinin (HA) of influenza A/Ck/HK/SSP176/09 (H9N2) (influenza A virus). Kind of test: cell-based or functional assay.
Test [19] deals with hemagglutinin (HA) of influenza A/New Caledonia/20/99 (H1N1) (influenza A virus). Kind of test: cell-based or functional assay.
Test [20] has as its target hemagglutinin (HA) of influenza B/Malaysia/2506/04 (Victoria) (influenza B virus). Put plainly: cell-based or functional assay.
The target in test [21] is hemagglutinin (HA) of influenza A/Vietnam/1194/04 (H5N1) (influenza A virus). Put plainly: cell-based or functional assay.

Our source for the Kd and Average neutralization titers values is patent US20190359693A1.

Usually Kd stands for the equilibrium constant for the complex coming apart.

As to MD3606 (Fc fusion), the equilibrium dissociation constant (Kd) in [1] was determined as 1.1 nM; in test [2], 1.4 nM; in test [3], 2.2 nM; in [4], 0.6 nM; in [5], 1.2 nM; in [6], 3.8 nM. Also, the Average neutralization titers in test [7] was determined as 2.6 nM; in [8], 3.3 nM; in [9], 7.2 nM; in [10], 6.5 nM; in test [11], 5.7 nM; in [12] it was 10.2 nM. In addition, the Average neutralization titers in [13] is 38.2 nM; in [14] it was 40.5 nM; in test [15], 7 nM; in test [16], 2.6 nM; in test [17], 9.2 nM; in test [18], 9 nM. Moreover, the figures for the Average neutralization titers in [19], in [20] and in test [21] were 2.6 nM, 2.6 nM and 5.7 nM, respectively.
